Assay results as given in US9163227B2, “Anti-diabetic compounds” (PFIZER INC., priority 2011, dated 2015).
Read-outs that look alike come from different tables or passages of the source. Marks after values point to notes of the source that are not given here.

Experiments:
[1] = tested on: high-fat diet-induced obese mice; test: Oral glucose tolerance test in DIO mice (FGF21 conjugates); type: in vivo; conditions: day 10, 1 mg/kg QD
Protocol: (§1) The efficacy of FGF21 antibodies conjugates was evaluated in two murine obese insulin resistant models—ob/ob mice and high-fat diet-induced obese mice. For both models, male mice (6-8 weeks of age for ob/ob, 12-14 weeks of age for DIO with high-fat diet initiated at 6 weeks of age) were housed 2-4/cage and FGF21 antibody conjugates were administered by SC injection. Body weight was measured daily in the morning. Glucose tolerance was assessed by oral glucose tolerance test. Briefly, mice were fasted for 4-5 hrs in the morning of the day of testing. A basal blood sample was obtained and blood glucose levels were determined using a portable glucometer.

[2] = tested on: high-fat diet-induced obese mice; test: Serum lipids in DIO mice; type: in vivo; conditions: day 10, 1 mg/kg QD
[3] = Mouse pharmacokinetics of FGF21 antibody conjugates; type: in vivo, Swiss-Webster mice; conditions: mouse PK; antibody conjugate at the named site (protein for FGF21ΔH)
Protocol: The PK of FGF21 antibody conjugates were examined in mice after IV or SC administration. […] Antibody conjugates concentrations in serum were determined using an ELISA which captured the FGF21 portion of the antibody conjugates through a monoclonal anti-hFGF21 antibody bound to a 96-well plate. FGF21 antibody conjugates bound to the plate were detected through an anti-hFc monoclonal antibody, and concentrations were determined using a standard curve of the PK dosing solution diluted into serum-containing assay buffer. SC bioavailability was calculated as the ratio of the area-under the curve (AUC) of the SC serum concentration profile divided by the AUC of the IV serum concentration profile.

[4] = target: Glut1 mRNA expression in differentiated 3T3-L1 adipocytes (Mus musculus, UniProt P16092+Q99N32); test: Glut1 Taqman assay; type: cell-based
Chain of Glut1 mRNA expression in differentiated 3T3-L1 adipocytes (P16092 22-822): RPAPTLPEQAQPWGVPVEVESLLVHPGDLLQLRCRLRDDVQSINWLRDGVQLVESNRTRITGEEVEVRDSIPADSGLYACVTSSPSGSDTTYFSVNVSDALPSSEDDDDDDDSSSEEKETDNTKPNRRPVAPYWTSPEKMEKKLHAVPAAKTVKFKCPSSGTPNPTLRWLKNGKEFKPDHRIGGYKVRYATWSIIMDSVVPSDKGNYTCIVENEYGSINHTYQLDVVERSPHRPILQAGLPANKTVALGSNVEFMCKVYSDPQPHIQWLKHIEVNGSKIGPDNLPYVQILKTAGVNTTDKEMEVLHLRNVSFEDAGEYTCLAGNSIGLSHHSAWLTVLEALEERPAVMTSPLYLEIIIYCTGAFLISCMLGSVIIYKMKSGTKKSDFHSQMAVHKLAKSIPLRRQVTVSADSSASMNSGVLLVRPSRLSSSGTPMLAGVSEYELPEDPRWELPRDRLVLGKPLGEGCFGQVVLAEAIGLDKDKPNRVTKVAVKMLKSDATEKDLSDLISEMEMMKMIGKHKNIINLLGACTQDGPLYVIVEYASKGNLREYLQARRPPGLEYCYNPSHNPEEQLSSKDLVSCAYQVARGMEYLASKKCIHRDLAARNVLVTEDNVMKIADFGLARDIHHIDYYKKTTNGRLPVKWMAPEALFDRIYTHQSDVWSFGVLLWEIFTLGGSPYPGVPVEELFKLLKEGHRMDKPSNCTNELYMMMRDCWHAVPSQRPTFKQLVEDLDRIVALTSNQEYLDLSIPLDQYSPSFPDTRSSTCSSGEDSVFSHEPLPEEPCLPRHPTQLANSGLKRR
Chain of Glut1 mRNA expression in differentiated 3T3-L1 adipocytes (Q99N32 whole entry): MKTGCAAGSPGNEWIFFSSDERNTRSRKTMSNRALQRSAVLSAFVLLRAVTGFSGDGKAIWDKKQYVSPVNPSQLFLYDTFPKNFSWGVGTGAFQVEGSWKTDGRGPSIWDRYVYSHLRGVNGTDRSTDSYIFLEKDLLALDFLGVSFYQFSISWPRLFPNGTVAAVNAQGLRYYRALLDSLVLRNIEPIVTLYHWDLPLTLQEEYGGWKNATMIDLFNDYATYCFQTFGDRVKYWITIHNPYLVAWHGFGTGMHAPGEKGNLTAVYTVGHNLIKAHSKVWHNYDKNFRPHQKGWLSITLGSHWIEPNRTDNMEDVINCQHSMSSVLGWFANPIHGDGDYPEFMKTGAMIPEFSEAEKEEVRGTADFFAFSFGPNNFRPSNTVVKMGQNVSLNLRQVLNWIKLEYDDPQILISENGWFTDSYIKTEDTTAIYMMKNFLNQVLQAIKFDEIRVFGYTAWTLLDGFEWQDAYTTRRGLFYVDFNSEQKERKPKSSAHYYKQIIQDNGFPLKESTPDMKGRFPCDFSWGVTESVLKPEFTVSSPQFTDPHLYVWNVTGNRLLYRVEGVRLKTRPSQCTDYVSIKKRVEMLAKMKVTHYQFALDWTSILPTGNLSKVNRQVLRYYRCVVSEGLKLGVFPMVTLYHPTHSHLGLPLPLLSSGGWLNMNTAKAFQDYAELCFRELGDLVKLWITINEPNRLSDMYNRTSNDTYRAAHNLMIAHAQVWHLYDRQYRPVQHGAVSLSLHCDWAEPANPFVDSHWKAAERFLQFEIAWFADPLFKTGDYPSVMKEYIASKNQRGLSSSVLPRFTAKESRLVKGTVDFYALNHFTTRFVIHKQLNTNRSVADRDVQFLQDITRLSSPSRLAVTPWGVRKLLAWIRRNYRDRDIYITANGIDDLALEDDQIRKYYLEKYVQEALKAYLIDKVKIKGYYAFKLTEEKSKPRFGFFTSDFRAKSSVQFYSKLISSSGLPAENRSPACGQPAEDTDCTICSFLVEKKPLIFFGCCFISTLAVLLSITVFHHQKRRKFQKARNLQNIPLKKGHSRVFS
Protocol: Differentiated 3T3-L1 adipocytes were used to measure the Glut1 mRNA expression by qPCR method. Overnight serum starved day 10-14 differentiated 3T3-L1 adipocytes were treated with compounds for 6 hrs. Total RNA was extracted from these cells, and Glut1 and GAPDH mRNA expression was measured using a Quantitect Probe RT-PCR kit and running a quantitative real time PCR reaction in a Taqman machine (Applied Biosystems®). The bioactivity of the compounds was determined by a fold change in Glut1 mRNA levels normalized by the GAPDH mRNA levels from each sample. EC═values as measurements of the potency of the compounds were obtained from the dose response curves in the assay.
3T3-L1 adipocytes were seeded at day 8 in 24-well tissue culture plates (Falcon®, Cat#353047), and incubated in DMEM complete medium (10% FBS, 2 mM L-glutamine, 1% P/S) at 37° C., 5% CO2. […] The medium was aspirated, and then RNA extracted from the cells using the RNeasy mini Kit according to the manufacturer's instructions. RNA was measured at A260 nm using the Spectramax® Plus spectrophotometer.
In Glut1 Taqman assay, differentiated 3T3-L1 adipocytes were used to measure the Glut1 mRNA expression by real-time quantitative PCR (qPCR) method described below. Overnight serum starved day 10-14 differentiated 3T3-L1 adipocytes were treated with compounds for 6 hrs. Total RNA was extracted from these cells, and Glut1 and GAPDH mRNA expression was measured using a Quantitect Probe RT-PCR kit and running a real time quantitative PCR reaction in a Taqman machine. The bioactivity of the compounds was determined by a fold change in Glut1 mRNA levels normalized by the GAPDH mRNA levels from each sample. In cAMP assay, Chinese hamster ovary (CHO) cells over-expressing human GLP-1R(CHO-hGLP-1R) were seeded in 96-well plates in serum-free medium with 300 uM IBMX. Cells were incubated with compounds at RT for 1 hr. The cAMP levels were measured using a CisBio cAMP Kit according to manufacturer's instructions. The bioactivity of the compounds was determined by the EC50 values obtained from the assay (see Table 42).

[5] = tested on: SCD1, MOGAT2, FoxA2 mRNA in liver; test: Hepatic gene expression (qPCR) in ob/ob mice; type: in vivo; conditions: day 6, 1 mg/kg QD
[6] = Body weight and liver weight in ob/ob mice; type: in vivo; conditions: for mean liver weight: FIG. 5B
Protocol: as §1

ob/ob mice = test: Oral glucose tolerance test in ob/ob mice (FGF21 conjugates); type: in vivo; conditions: for mean glucose AUC % during OGTT: FIG. 6B; for Mean Glucose AUC (% of vehicle control) during OGTT: FIGS. 4A/4B
Protocol: as §1

[7] = target: differentiated 3T3-L1 adipocytes (Mus musculus, UniProt P16092+Q99N32); test: Glucose uptake assay; type: cell-based
Chain of differentiated 3T3-L1 adipocytes (P16092 22-822): as the sequence (P16092 22-822) above
Chain of differentiated 3T3-L1 adipocytes (Q99N32 whole entry): as the sequence (Q99N32 whole entry) above
Protocol: Differentiated 3T3-L1 adipocytes were treated with compounds in the absence of serum for 24 hrs. Cells were then incubated with ^14C-2-deoxyglucose for 1 hr and glucose uptake into the cells was quantitated in Wallac 1450 MicroBeta (Trilux) instrument. Glucose uptake was expressed in counts per min (CPM). EC50 values as measurements of the potency of the compounds were obtained from the dose response curves in the assay.

[8] = Stability assay of FGF21ΔH-D79C; type: physicochemical
Protocol: FGF21ΔH-D790 mutant protein was produced in E. coli and purified as described above. FGF21ΔH-D790 was expressed from 1 L of culture. A 150 mg inclusion body was obtained and 85 mg purified protein was obtained, representing a 60% yield. To test the stability of FGF21ΔH-D790 as well as FGF21ΔH (SEQ ID NO:2), freshly thawed samples were kept at 4° C. over seven days, and examined for their integrity by RP-HPLC, SEC_HPLC, Ellman assay and SDS-PAGE on day 0, 3 and 7. […] PBS (pH7.4) and 20 mM Tris-HCl 50 mM NaCl (pH7.5) made no significant difference of stability of FGF21ΔH-D79C.
It is possible that the solubility of FGF21ΔH-D79C may be reduced at pH6.0. The stability of FGF21ΔH-D79C was examined upon multiple freeze/thaw cycles. The proteins were repeated to freeze (−80 C) and thaw (4° C.) 9 times.

DIO mice = test: Sub-chronic and single dose efficacy of ABC-1 in DIO mice (body weight, food intake, OGTT, cholesterol, liver triglycerides); type: in vivo; conditions: Table 54: DIO mice, single SC 0.6 mg/kg
Protocol: Sub Chronic Dose Efficacy. […] All compounds were dosed SC once weekly, body weight and food intake was measured twice weekly, and an OGTT was conducted on day 17, 3 days after the 3rd weekly dose. On day 20, liver and serum samples were collected for lipid analysis.
All compounds were administered SC on day 0, body weight was measured twice weekly, and OGTT was conducted on day 7, 13, and 21. […] The sustained efficacy of the ABC-1 in vivo supports once weekly dosing of the compound.
Sub Chronic Dose Efficacy. […] All compounds were administered SC once weekly. Body weight was measured twice weekly, and an OGTT was conducted 3 days after the 3rd weekly dose.

[9] = differentiated 3T3-L1 adipocytes, 6 hrs, protein or antibody conjugate as labelled, read-out: Glut1 Taqman assay EC50

B1: FGF21ΔH: FGF21 with H1 absent, L146 (SEQ ID NO:2), produced from E. coli (protein, listed as Homo sapiens)
chain: PIPDSSPLLQFGGQVRQRYLYTDDAQQTEAHLEIREDGTVGGAADQSPESLLQLKALKPGVIQILGVKTSRFLCQRPDGALYGSLHFDPEACSFRELLLEDGYNVYQSEAHGLPLHLPGNKSPHRDPAPRGPARFLPLPGLPPALPEPPGILAPQPPDVGSSDPLSMVGPSQGRSPSYAS
[1]
  Glucose AUC during OGTT (% of vehicle control): 75*** % of vehicle control
[2]
  Mean values of serum lipids NEFA (mM) (SEM): 0.40 (0.04) mM
  Mean values of serum lipids TG (mg/dL) (SEM): 92 (9.6)** mg/dL
[3]
  % SC BioAv: 96%
  IV T1/2: 24 min
  SC T1/2: 30 min
[4]; 3T3-L1 adipocytes
  activity in Glut1 Taqman assay (in words): dose-dependent Glut1 induction
[4]; 3T3-L1 adipocytes, serum-free DMEM 0.2% BSA, 6 hrs, Taqman quantitative real-time PCR, read-out: Glut1 RNA expression EC50
  EC50: 3.39 nM
[4]; unconjugated FGF21 mutant protein, n in parentheses, read-out: Glut1 Taqman unconjugated Protein EC50
  EC50: 2.3 nM
[5]
  Mean fold change of mRNA expression, FoxA2 (SEM): 1.23 (0.08) fold
  Mean fold change of mRNA expression, MOGAT2 (SEM): 0.37 (0.05)** fold
  Mean fold change of mRNA expression, SCD1 (SEM): 0.95 (0.06) fold
[6]; FIG. 5A, single SC dose 0.6 mg/kg
  Cumulative body weight change, mean body weight: 3.2 g
[6]; FIG. 5A, single SC dose 1 mg/kg
  Cumulative body weight change, mean body weight: 2.5 g
[6]; single SC dose 0.6 mg/kg
  mean liver weight: 2.4 g
[6]; single SC dose 1 mg/kg
  mean liver weight: 2.2 g
[6]; FIG. 6A, single dose, dose not given
  Cumulative body weight change, mean body weight: 1.9 g
ob/ob mice; ob/ob mice, single dose, dose not given
  mean glucose AUC % during OGTT: 63%
ob/ob mice; ob/ob mice, single SC dose 0.6 mg/kg
  Mean Glucose AUC (% of vehicle control) during OGTT: 103 % of vehicle control
ob/ob mice; ob/ob mice, single SC dose 1 mg/kg
  Mean Glucose AUC (% of vehicle control) during OGTT: 74 % of vehicle control
ob/ob mice; ob/ob mice, OGTT on day 6, 1 mg/kg QD
  Mean Glucose AUC (% of vehicle control): 61** % of vehicle control
ob/ob mice; ob/ob mice, day 6, 1 mg/kg QD
  Glucose AUC during OGTT (% of vehicle control): 67*** % of vehicle control
ob/ob mice; protein, 1 mg/kg Qd
  GTT* (% AUC of Ctrl): 67 % AUC of Ctrl
[7]; unconjugated protein (per Examples 18-21), n in parentheses
  EC50: 12 nM

B2: FGF21ΔH-D79C: FGF21 cysteine mutant, SEQ ID NO:12 (protein, listed as Homo sapiens)
chain: PIPDSSPLLQFGGQVRQRYLYTDDAQQTEAHLEIREDGTVGGAADQSPESLLQLKALKPGVIQILGVKTSRFLCQRPCGALYGSLHFDPEACSFRELLLEDGYNVYQSEAHGLPLHLPGNKSPHRDPAPRGPARFLPLPGLPPALPEPPGILAPQPPDVGSSDPLSMVGPSQGRSPSYAS
[8]; freeze (−80 C) and thaw (4° C.) 9 times, RP-HPLC, SEC and Ellman assay
  stability upon freeze/thaw cycles: Neither sample showed any difference between cycle 1 and cycles 9
[8]; neutral pH 7.4, 4° C., seven-day incubation
  stability (oxidation, dimerization): stable
[8]; pH 6.0, 4° C., three-day incubation
  portion oxidized: more than half
[4]; [9]
  EC50: 2.1 nM
[6]; FIG. 6A, single dose 2 mg/kg
  Cumulative body weight change, mean body weight: 2.1 g
ob/ob mice; ob/ob mice, single dose 10 mg/ml (so in the source)
  mean glucose AUC % during OGTT: 54%

B3: FGF21ΔH-K56-K59R-K69R-K122: FGF21 lysine mutant, SEQ ID NO:21 (protein, listed as Homo sapiens)
chain: PIPDSSPLLQFGGQVRQRYLYTDDAQQTEAHLEIREDGTVGGAADQSPESLLQLRALRPGVIQILGVRTSRFLCQRPDGALYGSLHFDPEACSFRELLLEDGYNVYQSEAHGLPLHLPGNKSPHRDPAPRGPARFLPLPGLPPALPEPPGILAPQPPDVGSSDPLSMVGPSQGRSPSYAS
[4]; [9]
  EC50: 2.6 nM
[7]; 3T3-L1 adipocytes, 24 hrs, unconjugated protein
  EC50: 1.7 nM

B4: FGF21: Fibroblast growth factor (FGF) 21, wild type (protein, listed as Homo sapiens)
chain: PIPDSSPLLQFGGQVRQRYLYTDDAQQTEAHLEIREDGTVGGAADQSPESLLQLKALKPGVIQILGVKTSRFLCQRPDGALYGSLHFDPEACSFRELLLEDGYNVYQSEAHGLPLHLPGNKSPHRDPAPRGPARFLPLPGLPPALPEPPGILAPQPPDVGSSDPLSMVGPSQGRSPSYAS
[4]; Glut1 Taqman, 3T3-L1 adipocytes, 6 hrs, read-out: FGF21 (Glut1) EC50
  EC50: 2.1 nM
DIO mice; Day 7
  Mean Body Weight Change (g) (SEM): +1.4 g
DIO mice; OGTT Day 7
  Mean Glucose AUC (% of vehicle control): 99 % of vehicle control
